{"source": "paper PMC10774444", "about": "“BPG4 regulates chloroplast development and homeostasis by suppressing GLK transcription factors and involving light and brassinosteroid signaling”", "molecular_target": "T1, GST-GLK1 (Arabidopsis thaliana, UniProt Q9SIV3 1-420)", "T1 sequence": "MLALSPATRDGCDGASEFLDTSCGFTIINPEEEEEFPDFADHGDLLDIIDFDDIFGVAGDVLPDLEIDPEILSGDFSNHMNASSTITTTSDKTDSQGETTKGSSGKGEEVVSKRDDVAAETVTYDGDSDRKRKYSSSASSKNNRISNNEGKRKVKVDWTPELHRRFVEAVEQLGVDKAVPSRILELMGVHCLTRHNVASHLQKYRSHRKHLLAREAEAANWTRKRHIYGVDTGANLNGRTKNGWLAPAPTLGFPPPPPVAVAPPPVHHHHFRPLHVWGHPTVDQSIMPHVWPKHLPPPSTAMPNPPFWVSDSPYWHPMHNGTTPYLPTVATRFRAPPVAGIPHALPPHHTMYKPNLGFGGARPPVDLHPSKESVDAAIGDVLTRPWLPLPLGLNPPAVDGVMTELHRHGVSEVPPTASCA", "assay": "EMSA; without BPG4; GLK1 EMSA: 10 mM Tris-HCl pH 8.0, 50 mM KCl, 10 mM EDTA, 2.5% glycerol, 1 mM DTT, 0.05 ug/ul poly(dI-dC), 5 pmol probe; proteins preincubated on ice 5 min then", "settings": "protein: recombinant; tags: N-term GST (pGEX-6P-3); label: FAM; blunt"}
{"binder": "CAO-probe (dsDNA) DNA 1: TTTAGATCCCATGATTCTCAACACGACTGA DNA 2: TCAGTCGTGTTGAGAATCATGGGATCTAAA", "values": [{"measurement": "binding result", "value": "binds"}]}
